Each block holds one binder with its values, some of them ahead of it.
Key:
Test in all cases: FRET or BRET; FLIM-FRET in living A. thaliana leaf mesophyll protoplasts that co-express the two fusions; eGFP donor, mRFP acceptor; E=1−τDA/τD×100%; FRET efficiency above the threshold of 5% (free eGFP with free mRFP) taken as putative positive interaction
Details in all cases: partners not purified
AtNCT–RFP = target: T1, AtNCT–RFP (Arabidopsis thaliana, UniProt Q8GUM5 29-676)
T1 construct: Arabidopsis thaliana nicastrin (AtNCT, At3g52640); FLIM-FRET acceptor; also called nicastrin; source: A. thaliana leaf mesophyll protoplasts, transiently transfected (pSITE vector), in living cells; not shown: mRFP, C-terminal, kept
T1 sequence (looked up): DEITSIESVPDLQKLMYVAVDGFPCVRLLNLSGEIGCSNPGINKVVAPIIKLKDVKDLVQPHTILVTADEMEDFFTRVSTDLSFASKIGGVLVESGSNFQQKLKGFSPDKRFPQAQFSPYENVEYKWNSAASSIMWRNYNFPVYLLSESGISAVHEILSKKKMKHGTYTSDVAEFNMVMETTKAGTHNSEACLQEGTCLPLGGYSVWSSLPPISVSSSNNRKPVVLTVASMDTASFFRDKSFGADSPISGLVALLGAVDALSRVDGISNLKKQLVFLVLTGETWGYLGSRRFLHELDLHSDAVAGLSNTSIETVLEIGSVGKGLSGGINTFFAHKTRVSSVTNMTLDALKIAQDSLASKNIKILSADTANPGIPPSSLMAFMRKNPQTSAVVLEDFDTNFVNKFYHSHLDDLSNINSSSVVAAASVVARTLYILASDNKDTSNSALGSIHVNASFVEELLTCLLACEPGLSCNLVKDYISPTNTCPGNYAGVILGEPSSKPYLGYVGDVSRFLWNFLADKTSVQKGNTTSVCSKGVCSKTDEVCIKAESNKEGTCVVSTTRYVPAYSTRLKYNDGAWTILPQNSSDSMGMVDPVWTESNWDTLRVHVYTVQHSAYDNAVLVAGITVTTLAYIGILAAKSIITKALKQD

AtPEN-2–RFP = target: T2, AtPEN-2–RFP (Arabidopsis thaliana, UniProt Q9FY84 1-146)
T2 construct: Arabidopsis thaliana PEN-2 (AtPEN-2, At5g09310); FLIM-FRET acceptor; also called presenilin enhancer 2; source: A. thaliana leaf mesophyll protoplasts, transiently transfected (pSITE vector), in living cells; not shown: mRFP, C-terminal, kept
T2 sequence (looked up): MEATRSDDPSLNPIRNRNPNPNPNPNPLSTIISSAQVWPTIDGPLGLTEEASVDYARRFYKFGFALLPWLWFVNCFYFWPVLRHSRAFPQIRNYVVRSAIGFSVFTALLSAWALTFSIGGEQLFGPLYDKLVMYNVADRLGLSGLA

AtAPH-1–RFP = target: T3, AtAPH-1–RFP (Arabidopsis thaliana, UniProt Q8L9G7 1-250)
T3 construct: Arabidopsis thaliana APH-1 (AtAPH-1, At2g31440); FLIM-FRET acceptor; also called anterior pharynx-defective 1; source: A. thaliana leaf mesophyll protoplasts, transiently transfected (pSITE vector), in living cells; not shown: mRFP, C-terminal, kept
T3 sequence (Q8L9G7 whole entry): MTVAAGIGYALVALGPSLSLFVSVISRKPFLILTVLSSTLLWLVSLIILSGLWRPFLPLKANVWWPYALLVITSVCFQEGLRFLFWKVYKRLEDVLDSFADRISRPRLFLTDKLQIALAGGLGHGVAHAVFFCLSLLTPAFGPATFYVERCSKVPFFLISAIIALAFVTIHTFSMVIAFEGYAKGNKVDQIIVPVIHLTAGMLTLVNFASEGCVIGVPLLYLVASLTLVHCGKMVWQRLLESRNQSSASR

FRET efficiency, E_(FRET) (AtPEN-2–RFP): 32%
FRET efficiency, E_(FRET) (AtAPH-1–RFP): 20%
B2: AtPS2–GFP (natural protein, Arabidopsis thaliana, UniProt Q9SIK7 1-397, looked up)
chain: MDRNQRPRSILDSLGEELIAILTPVSICMFTVVLLVCILNSDPSSSSASFSSIATAAYSESDSDSSWDKFVGALLNSVVFVAAITVATFVLVLLFYLRCVKFLKFYMGFSAFIVLGNLGGEILVLLIDRFRFPIDSITFLILLFNFSVVGVFAVFMSKFSILITQGYLVWIGVLVAYFFTLLPEWTTWVLLVALALYDIAAVLLPVGPLRLLVEMAISRDEDIPALVYEARPVIRNDSRSVQRRVWREQRSSQNNANRNEVRVVESAEVEEEHVGSSERAEISVPLIDRRPEQAENSETFLEGIGLGSSGAIKLGLGDFIFYSVLVGRAAMYDLMTVYACYLAIIAGLGITLMLLSVYQKALPALPVSIMLGVVFYFLARLLLEVFVVQCSSNLVMF
notes: Arabidopsis thaliana presenilin 2 (AtPS2, At2g29900); cDNA made from leaf RNA; FLIM-FRET donor; also called presenilin 2; AtAtPS2–GFP; source: A. thaliana leaf mesophyll protoplasts, transiently transfected (pSITE vector), in living cells; not shown: eGFP, C-terminal, kept

FRET efficiency, E_(FRET) (AtPEN-2–RFP): 24%
FRET efficiency, E_(FRET) (AtNCT–RFP): 19%
FRET efficiency, E_(FRET) (AtAPH-1–RFP): 19%
B3: AtPS1–GFP (natural protein, Arabidopsis thaliana, UniProt O64668 1-453, looked up)
chain: MESSILDSLGVEIIGVMAPVSICMFLVVLLTYSLSVTSDPQIRSAANLIYIENPSDSTTVKLEGSLANAIVFVVLIAAVTFILVLLFYYNFTNFLKHYMRFSAFFVLGTMGGAIFLSIIQHFSIPVDSITCFILLFNFTILGTLSVFAGGIPIVLRQCYMVVMGIVVAAWFTKLPEWTTWFILVALALYDLVAVLAPGGPLKLLVELASSRDEELPAMVYEARPTVSSGNQRRNRGSSLRALVGGGGVSDSGSVELQAVRNHDVNQLGRENSHNMDYNAIAVRDIDNVDDGIGNGSRGGLERSPLVGSPSASEHSTSVGTRGNMEDRESVMDEEMSPLVELMGWGDNREEARGLEESDNVVDISNRGIKLGLGDFIFYSVLVGRAAMYDLMTVYACYLAIISGLGCTLILLSVYNRALPALPISIMLGVVFYFLTRLLMEPFVVGVTTNLMMF
notes: Arabidopsis thaliana presenilin 1 (AtPS1, At1g08700); FLIM-FRET donor; also called presenilin 1; source: A. thaliana leaf mesophyll protoplasts, transiently transfected (pSITE vector), in living cells; not shown: eGFP, C-terminal, kept

Second part, the binder before the results:

B1: AtPEN-2–GFP (natural protein, Arabidopsis thaliana, UniProt Q9FY84 1-146, looked up)
chain: T2 sequence (looked up)
notes: Arabidopsis thaliana PEN-2 (AtPEN-2, At5g09310); FLIM-FRET donor; also called presenilin enhancer 2; source: A. thaliana leaf mesophyll protoplasts, transiently transfected (pSITE vector), in living cells; not shown: eGFP, C-terminal, kept
FRET efficiency, E_(FRET) (AtNCT–RFP): 11%

B4: AtNCT–GFP (natural protein, Arabidopsis thaliana, UniProt Q8GUM5 29-676, looked up)
chain: T1 sequence (looked up)
notes: Arabidopsis thaliana nicastrin (AtNCT, At3g52640); FLIM-FRET donor; also called nicastrin; source: A. thaliana leaf mesophyll protoplasts, transiently transfected (pSITE vector), in living cells; not shown: eGFP, C-terminal, kept
FRET efficiency, E_(FRET) (AtAPH-1–RFP): 14%
